In patent US20220118063A1 one finds fold decrease in specific activity of CM211 in the APTT against the Coatest assay data, which are given here for one substance.

The test addresses FVIII (B region deleted), purchased from American Pharma Wholesale (human) (UniProt P00451). The experiment in a line: cell-based or functional assay.
UniProt P00451, sequence (P00451 other isoform, or with tags, fused parts or gaps, chain 1 of 2): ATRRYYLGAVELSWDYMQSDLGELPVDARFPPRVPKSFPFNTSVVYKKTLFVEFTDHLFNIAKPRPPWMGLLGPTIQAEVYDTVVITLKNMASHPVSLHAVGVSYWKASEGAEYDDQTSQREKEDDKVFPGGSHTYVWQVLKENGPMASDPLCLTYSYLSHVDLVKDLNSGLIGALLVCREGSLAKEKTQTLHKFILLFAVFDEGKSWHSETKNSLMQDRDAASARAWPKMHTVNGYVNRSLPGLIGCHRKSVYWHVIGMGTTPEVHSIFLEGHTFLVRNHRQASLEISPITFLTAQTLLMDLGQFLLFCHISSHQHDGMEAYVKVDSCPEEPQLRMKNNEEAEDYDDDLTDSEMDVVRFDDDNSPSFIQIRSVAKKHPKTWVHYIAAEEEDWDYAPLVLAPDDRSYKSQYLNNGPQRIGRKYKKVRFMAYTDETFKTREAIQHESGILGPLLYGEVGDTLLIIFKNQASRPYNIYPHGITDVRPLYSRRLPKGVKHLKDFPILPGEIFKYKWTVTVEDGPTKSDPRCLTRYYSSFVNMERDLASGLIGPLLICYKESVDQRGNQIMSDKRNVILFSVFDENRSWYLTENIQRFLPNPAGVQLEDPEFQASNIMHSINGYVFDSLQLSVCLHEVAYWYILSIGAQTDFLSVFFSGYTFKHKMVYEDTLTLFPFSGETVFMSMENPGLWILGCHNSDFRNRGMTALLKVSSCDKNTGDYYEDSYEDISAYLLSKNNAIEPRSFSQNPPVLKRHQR
UniProt P00451, sequence (P00451 1668-2351, stated change not applied, chain 2 of 2): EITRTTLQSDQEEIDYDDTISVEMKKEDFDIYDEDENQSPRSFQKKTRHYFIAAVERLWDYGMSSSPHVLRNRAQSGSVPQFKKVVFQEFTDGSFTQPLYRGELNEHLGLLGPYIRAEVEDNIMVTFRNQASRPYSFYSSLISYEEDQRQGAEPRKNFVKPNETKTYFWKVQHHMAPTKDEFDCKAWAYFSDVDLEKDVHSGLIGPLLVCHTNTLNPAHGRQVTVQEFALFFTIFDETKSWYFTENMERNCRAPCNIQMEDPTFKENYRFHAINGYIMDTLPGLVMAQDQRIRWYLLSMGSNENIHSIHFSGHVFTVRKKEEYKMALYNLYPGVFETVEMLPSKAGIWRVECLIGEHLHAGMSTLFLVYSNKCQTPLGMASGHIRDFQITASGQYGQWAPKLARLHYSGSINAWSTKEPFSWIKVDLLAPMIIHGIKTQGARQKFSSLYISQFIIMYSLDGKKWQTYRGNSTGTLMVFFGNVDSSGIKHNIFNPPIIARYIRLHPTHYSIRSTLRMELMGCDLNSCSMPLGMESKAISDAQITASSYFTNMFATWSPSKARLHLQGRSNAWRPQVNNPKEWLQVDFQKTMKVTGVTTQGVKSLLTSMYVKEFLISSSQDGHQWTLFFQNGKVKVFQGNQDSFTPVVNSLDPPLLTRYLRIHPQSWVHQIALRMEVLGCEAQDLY

In the case of “CM110 (expressed from plasmid pCM110RMHM: D′D3 region of human von Willebrand Factor with cys1099 and cys1142 changed to alanine, 56 amino acid glycine serine rich linker, full length human albumin, no His tag) (from UniProt P04275 764-1247)”, the fold decrease in specific activity of CM211 in the APTT against the Coatest assay was 6.5 fold.
